Publication PMC5778809

Target: SELENOF’-YFP (human selenoprotein F with Sec changed to Cys, fused to enhanced yellow fluorescence protein) (human) (UniProt O60613)
Assay: FRET or BRET; acceptor photobleaching in HEK293T cells co-transfected with pEYFP-N1 and pECFP-C1 constructs; YFP bleached at 515 nm, CFP read before and after; confocal microscope

UniProt O60613, sequence (O60613 32-165): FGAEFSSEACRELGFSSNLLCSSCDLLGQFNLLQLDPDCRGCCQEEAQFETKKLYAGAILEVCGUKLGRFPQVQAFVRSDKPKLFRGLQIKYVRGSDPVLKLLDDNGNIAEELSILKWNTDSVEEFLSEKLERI

B1: CFP-RDH11 (human retinol dehydrogenase 11 fused to cyan fluorescence protein) (enzyme)
chain: VELMFPLLLLLLPFLLYMAAPQIRKMLSSGVCTSTVQLPGKVVVVTGANTGIGKETAKELAQRGARVYLACRDVEKGELVAKEIQTTTGNQQVLVRKLDLSDTKSIRAFAKGFLAEEKHLHVLINNAGVMMCPYSKTADGFEMHIGVNHLGHFLLTHLLLEKLKESAPSRIVNVSSLAHHLGRIHFHNLQGEKFYNAGLAYCHSKLANILFTQELARRLKGSGVTTYSVHPGTVQSELVRHSSFMRWMWWLFSFFIKTPQQGAQTSLHCALTEGLEILSGNHFSDCHVAWVSAQARNETIARRLWDVSCDLLGLPID
For B1, the FRET energy transfer efficiency was 29.2% and the estimated distance between donor and acceptor (FRET) was 5.51 nm.
